This note sets out measurements from patent US20240254222A1 (Bayer, published 2024).

As usually defined, the Kd is the constant that tells how readily two partners part at equilibrium. A lower Kd goes with tighter binding. A word on the EC50: it is the concentration giving half of the maximal effect. A low value points to higher potency in that assay.

Where only a bound is given, the exact number is not on record here.

For test [1], the target named is Human Semaphorin3A-Fc (R&D Systems), TPP-13211 (human). Put plainly: cell-based or functional assay.
The target in test [2] is T1, Human Semaphorin3A-Sema Domain, TPP-19068 (human, UniProt Q14563 21-569).
T1 construct: produced inhouse in HEK293-6E; also called human monovalent Sema3A domain
T1 sequence: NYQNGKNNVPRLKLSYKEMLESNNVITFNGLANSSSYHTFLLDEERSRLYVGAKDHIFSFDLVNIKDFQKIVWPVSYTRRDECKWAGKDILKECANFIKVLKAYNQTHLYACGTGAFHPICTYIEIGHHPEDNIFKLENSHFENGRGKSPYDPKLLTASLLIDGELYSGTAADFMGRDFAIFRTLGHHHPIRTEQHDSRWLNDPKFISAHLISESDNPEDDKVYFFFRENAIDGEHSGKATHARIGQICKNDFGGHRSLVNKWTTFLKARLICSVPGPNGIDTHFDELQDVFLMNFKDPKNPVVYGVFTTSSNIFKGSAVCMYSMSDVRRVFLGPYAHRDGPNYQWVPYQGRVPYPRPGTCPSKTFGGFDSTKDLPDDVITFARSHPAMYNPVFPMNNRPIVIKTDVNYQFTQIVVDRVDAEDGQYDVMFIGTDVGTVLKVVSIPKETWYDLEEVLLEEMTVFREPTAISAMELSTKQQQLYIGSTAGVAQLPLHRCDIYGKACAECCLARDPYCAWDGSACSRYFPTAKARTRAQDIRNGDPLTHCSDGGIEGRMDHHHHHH
Put plainly: SPR, captured antibody, Sema3A domain analyte. In short, it runs like this:
(§1)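 SPR on Biacore T200/8K+ at 25° C in HBS P+ with 300 mM NaCl, 0.75 mM CaCl₂, 2.5 mM MgCl₂, 1 mg/ml BSA; antibodies captured by anti-human Fc, or anti-human Fab for Fc-tagged analytes. Fc-Sema3A at 1.56-200 nM; monovalent Sema domains at […]-3.125 nM multi-cycle or 100 nM binding only. Double-referenced 1:1 Langmuir fit.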

Test [3] has as its target T2, Dog Semaphorin3A-Sema Domain, TPP-19121 (dog, UniProt Q63548 21-569 (rat entry), limits assumed).
T2 construct: produced inhouse
T2 chain: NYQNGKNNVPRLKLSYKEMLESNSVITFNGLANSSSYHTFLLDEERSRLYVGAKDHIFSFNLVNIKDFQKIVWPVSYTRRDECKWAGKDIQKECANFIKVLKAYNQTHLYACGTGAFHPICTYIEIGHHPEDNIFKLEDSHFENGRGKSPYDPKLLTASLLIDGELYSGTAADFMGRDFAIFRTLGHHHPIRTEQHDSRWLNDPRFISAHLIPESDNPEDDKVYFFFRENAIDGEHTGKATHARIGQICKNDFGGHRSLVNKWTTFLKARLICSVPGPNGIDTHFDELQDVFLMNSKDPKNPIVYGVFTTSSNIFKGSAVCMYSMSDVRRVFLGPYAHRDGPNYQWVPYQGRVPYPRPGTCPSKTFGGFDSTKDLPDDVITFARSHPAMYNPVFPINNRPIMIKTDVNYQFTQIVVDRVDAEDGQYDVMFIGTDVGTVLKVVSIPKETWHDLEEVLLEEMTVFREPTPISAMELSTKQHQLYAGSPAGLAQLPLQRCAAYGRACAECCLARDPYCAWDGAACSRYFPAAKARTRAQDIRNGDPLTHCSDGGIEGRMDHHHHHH
Put plainly: SPR, captured antibody, Sema3A domain analyte. In short, it runs like this:
as §1
A general note: In SPR one partner is held on a chip, and binding of the other changes the refractive index at the surface.

The target of test [4] is T3, Pig Semaphorin3A-Sema Domain, TPP-20176 (pig, UniProt Q63548 21-569 (rat entry)).
T3 construct: produced inhouse
T3 chain: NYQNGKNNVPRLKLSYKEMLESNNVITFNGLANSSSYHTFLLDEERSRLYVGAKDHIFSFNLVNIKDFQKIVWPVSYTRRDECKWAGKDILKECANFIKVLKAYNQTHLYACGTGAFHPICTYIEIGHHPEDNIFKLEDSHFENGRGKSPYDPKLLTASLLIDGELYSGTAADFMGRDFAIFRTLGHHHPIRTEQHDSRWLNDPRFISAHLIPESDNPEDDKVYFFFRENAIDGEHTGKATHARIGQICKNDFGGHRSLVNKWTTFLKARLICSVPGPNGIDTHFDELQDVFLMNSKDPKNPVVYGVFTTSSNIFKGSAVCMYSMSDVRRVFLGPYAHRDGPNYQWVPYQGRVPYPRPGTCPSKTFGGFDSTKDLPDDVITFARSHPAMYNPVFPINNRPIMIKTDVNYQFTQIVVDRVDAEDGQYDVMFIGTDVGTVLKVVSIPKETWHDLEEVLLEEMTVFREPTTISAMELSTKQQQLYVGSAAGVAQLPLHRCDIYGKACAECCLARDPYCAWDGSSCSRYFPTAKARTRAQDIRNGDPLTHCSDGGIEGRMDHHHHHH
Kind of test: SPR, captured antibody, Sema3A domain analyte. In short, it runs like this: as §1

Test [5] has as its target T4, Human Semaphorin3A-Fc (R&D Systems), TPP-13211 (human).
T4 construct: R&D Systems 1250-S3; also called recombinant human Sema3A-Fc chimera
Kind of test: ELISA, coated Sema3A-Fc, antibody 0.00015-10 ug/ml. The protocol:
For the assessment of binding selectivity to Sema3A vs Sema3G, 1 nM recombinant human Sema3A-Fc chimera (R&D Systems) or recombinant human GST—Sema3G (Abnova) were coated on Maxisorb plates, incubated with antibodies in a dose-response curve from 0.00015-10 μg/ml, and the binding of antibodies quantified using HRP coupled anti-human antiserum and chemiluminescent substrate.

T4 sequence (chain, as listed by the source limits assumed): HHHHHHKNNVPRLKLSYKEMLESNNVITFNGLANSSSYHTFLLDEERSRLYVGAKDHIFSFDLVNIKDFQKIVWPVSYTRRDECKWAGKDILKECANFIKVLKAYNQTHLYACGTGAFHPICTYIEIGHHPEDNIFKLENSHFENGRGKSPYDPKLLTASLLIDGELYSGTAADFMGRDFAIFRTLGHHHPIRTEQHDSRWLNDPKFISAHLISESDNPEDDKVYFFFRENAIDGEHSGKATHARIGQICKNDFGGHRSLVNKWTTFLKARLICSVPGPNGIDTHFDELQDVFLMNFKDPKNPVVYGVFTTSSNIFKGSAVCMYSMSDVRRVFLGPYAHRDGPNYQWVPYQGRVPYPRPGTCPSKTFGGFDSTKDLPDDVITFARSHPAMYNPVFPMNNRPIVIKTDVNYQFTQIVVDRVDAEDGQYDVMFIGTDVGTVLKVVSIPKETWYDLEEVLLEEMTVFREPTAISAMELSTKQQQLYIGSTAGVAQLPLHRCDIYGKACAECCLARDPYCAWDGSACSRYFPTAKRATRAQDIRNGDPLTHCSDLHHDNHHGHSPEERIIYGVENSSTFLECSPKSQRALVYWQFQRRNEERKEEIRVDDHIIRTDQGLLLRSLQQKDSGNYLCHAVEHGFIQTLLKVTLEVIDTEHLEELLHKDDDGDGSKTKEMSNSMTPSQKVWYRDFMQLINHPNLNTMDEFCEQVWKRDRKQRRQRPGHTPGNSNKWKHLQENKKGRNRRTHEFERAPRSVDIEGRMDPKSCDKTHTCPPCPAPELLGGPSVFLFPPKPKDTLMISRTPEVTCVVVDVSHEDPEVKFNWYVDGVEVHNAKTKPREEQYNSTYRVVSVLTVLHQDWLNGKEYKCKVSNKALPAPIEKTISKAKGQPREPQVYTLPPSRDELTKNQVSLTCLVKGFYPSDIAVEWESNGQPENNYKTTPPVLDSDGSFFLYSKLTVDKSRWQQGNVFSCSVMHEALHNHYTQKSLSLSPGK

B1: TPP-23341 (antibody, human IgG4 S228P, lambda, V domains shown)
VH: EVQLLESGGGLVQPGGSLRLSCAASGFTFSSYAMSWVRQAPGKGLEWVSAIGYGGDTYYADSVKGRFTISRDNSKNTLYLQMNSLRAEDTAVYYCARRDDYTSRDAFDYWGQGTLVTVSS
VL: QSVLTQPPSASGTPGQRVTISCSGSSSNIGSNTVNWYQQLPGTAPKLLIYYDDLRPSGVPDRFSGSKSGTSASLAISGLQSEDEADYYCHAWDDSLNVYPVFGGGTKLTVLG
With B1, the “EC50 [nM], MCM assay” value in test [1] is 0.9 nM. For the same molecule, the values for the Kd in test [2], in test [3] and in test [4] were 0.091 nM, 0.084 nM and 0.086 nM, respectively. This molecule also returned an EC50 in test [5] of 21.3 nM.

B2: TPP-23374 (antibody, human IgG4 S228P, lambda, V domains shown)
VH: EVQLLESGGGLVQPGGSLRLSCAASGFTFYSYAMSWVRQAPGKGLEWVSAIGYGGDTYYADSVKGRFTISRDNSKNTLYLQMNSLRAEDTAVYYCARRDDYTSRDAFDYWGQGTLVTVSS
VL: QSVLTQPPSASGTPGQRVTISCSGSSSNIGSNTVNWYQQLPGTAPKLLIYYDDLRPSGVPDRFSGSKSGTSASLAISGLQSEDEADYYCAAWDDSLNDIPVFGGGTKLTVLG
B2: the “EC50 [nM], MCM assay” value in test [1] came to 0.3 nM. The Kd was 0.0081 nM in test [2], 0.0073 nM in test [3] and below 0.003 nM in test [4]. The molecule further had an EC50 in test [5] of 6.1 nM.

B3: TPP-23373 (antibody, human IgG4 S228P, lambda, V domains shown)
VH: EVQLLESGGGLVQPGGSLRLSCAASGFTFYSYAMSWVRQAPGKGLEWVSAIGYGGDTYYADSVKGRFTISRDNSKNTLYLQMNSLRAEDTAVYYCARRDDYTSRDAFDYWGQGTLVTVSS
VL: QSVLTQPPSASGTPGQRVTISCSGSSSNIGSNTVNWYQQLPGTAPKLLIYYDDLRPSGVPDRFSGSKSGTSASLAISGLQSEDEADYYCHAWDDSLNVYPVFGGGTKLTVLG
Regarding B3, the “EC50 [nM], MCM assay” value in test [1] is 0.63 nM. The Kd in test [2] came out at 0.11 nM; in test [3], 0.1 nM; in test [4], 0.078 nM. Further, a half-maximal effect in test [5] (EC50) was put at 17.6 nM.

B4: TPP-23375 (antibody, human IgG4 S228P, lambda, V domains shown)
VH: EVQLLESGGGLVQPGGSLRLSCAASGFTFYSYAMSWVRQAPGKGLEWVSAIGYGGDTYYADSVKGRFTISRDNSKNTLYLQMNSLRAEDTAVYYCARRDDYTSRDAFDYWGQGTLVTVSS
VL: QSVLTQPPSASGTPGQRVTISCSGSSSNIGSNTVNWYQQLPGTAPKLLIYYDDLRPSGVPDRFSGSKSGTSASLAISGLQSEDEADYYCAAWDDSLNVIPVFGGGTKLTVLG
Take B4: the “EC50 [nM], MCM assay” value in test [1] was 1.03 nM. The Kd in test [2] was 0.053 nM; in test [3], 0.045 nM; in test [4] it was 0.047 nM. Also, in test [5], the EC50 stood at 7.7 nM.

B5: TPP-23347 (antibody, human IgG4 S228P, lambda, V domains shown)
VH: EVQLLESGGGLVQPGGSLRLSCAASGFTFYSYAMLWVRQAPGKGLEWVSAIGTGGDTYYADSVKGRFTISRDNSKNTLYLQMNSLRAEDTAVYYCARRDDYTSRDAFDYWGQGTLVTVSS
VL: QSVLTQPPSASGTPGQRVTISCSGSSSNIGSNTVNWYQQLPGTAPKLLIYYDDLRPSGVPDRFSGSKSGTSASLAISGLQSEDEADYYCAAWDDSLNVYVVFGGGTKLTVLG
As for B5, in test [1], the “EC50 [nM], MCM assay” value is 0.67 nM. The figures for the Kd in test [2], in test [3] and in test [4] were 0.06 nM, 0.051 nM and 0.053 nM, respectively. In test [5], the midpoint of the response, the EC50, lay at 8.4 nM.

B6: TPP-30788 (antibody, human IgG1, kappa, V domains shown)
VH: EVQLVESGGGLVQPGGSLRLSCAASGFTFSSYYMSWVRQAPGKGLEWVSTIIKSGGYAYYPDSVKDRFTISRDNSKNTLYLQMSSLRAEDTAVYYCVRGGQGAMDYWGQGTTVTVSS
VL: EIVLTQSPATLSLSPGERATLSCRASQSIGDYLHWYQQKPGQAPRLLIKYASQSISGIPARFSGSGSGTDFTLTITSLEPEDFAVYYCQQGYSFPYTFGGGTKLEIKR
notes: prior art, WO 2020/225400; also called BI clone I; Böhringer (BI) Clone I
Turning to B6, the “EC50 [nM], MCM assay” value in test [1] was determined as 1.43 nM. Also, the Kd in test [2] stood at 0.018 nM; in test [3], 0.11 nM; in test [4], 0.038 nM. The molecule further displayed an EC50 in test [5] of 0.15 nM.
